Experiment: yeast display, Sf9 membrane polyspecificity reagent, FACS + sequencing; frameworks hold sequencing errors
In short: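 After 36–48 hours of galactose induction, yeast (Saccharomyces cerevisiae BJ5465) displaying a synthetic nanobody library were stained at 4 °C for 1 hour with 10% biotinylated, detergent-solubilized Sf9 membrane reagent. Streptavidin microbeads enriched the stained cells before FACS sorting into low and high (top ~1%) gates on anti-HA and streptavidin fluorescence. Each clone's polyreactivity label reflects its gate of origin.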

Row | Sequence | polyreactivity (PSR sort gate)
1 | QVQLVESGGGLVQAGGSLRLSCAASGSIFPFYAMGWYRKAPGKERELVAAISDRGGSTYYADSVKGRFTISRDNAKNTVYLQMNSLKPDDTAVYYCAKGAEVSQGYTDEYDYWGQGTQVTVSS | low polyreactivity
2 | QVQLVESGGGLVQAGGSLRLSCAASGPTFHGYDMGWNRQAPGKERELVARINWSDGRTYYADSVKGRFTISRDNAKNTVYLQMISLKPEDTAVYYCAADKTGSYAPAWYYYWGQGTQVTVSS | low polyreactivity
3 | QVQLVESGGGLVQAGGSLRLSCAASGNILVENAMGWYRQAPGKERELVAVSTSGTSTYADSVKGRFTISRDNAKNSVSFQMNSLKPEDTAVYYCNARRINTLYDSWGQGTLVTVSS | low polyreactivity
4 | QVQLVESGGGLVQAGGSLRLSFAASGNIFSFNDMGWYRQAPGQERELVAAITSSDSTNYADSVKGRFTISRDNAKNTVYLQMNSLKPEDTAVYYCATEILTAARETVVYQFYLGYYYWGQGTQVTVSS | low polyreactivity
5 | QVQLVESGGVLVQAGGSLRLSCAASGRLFSRYTMGWYRQAPGKERELVAAIRNTGSTNYADSVKGRFTISRDNAKNTVYLQMNSLKPEDTAVYYCNARTAYVAYHYYYPQRMDYWGQGTQVTVSS | high polyreactivity
6 | QVQVVESGGGLVQAGGSLGLSCAASGRTFRVYAMGWYRQAPGKERELVASITRGGGTYADSVKGRFTISRDNAKNTVYLQMNCLKPEDTAVYYCNARWQRSTGGRQRYDYWGLGTQVTVSS | high polyreactivity
7 | QVQLVESGGGLVQAGGSLRLSCAASGSTVEYYAMGWYRQAPGKERELFAAISSGPSTTYADSVKGRFTISRDNAKNTVYLQMYSLKREDTAVYYCARLDGTTQALFGYDYWGQGTQVTVSS | low polyreactivity
8 | QVQLVESGGGLVQAGGSLRLSCAASGSTFARYAMVWYRQAPGKERELVAVIRSGGSTNYADSVKGRFTISRDNAKNTVYLQMNSLKPEDTAGAADQWTIHRWATYGYWGQGTQVTVSS | low polyreactivity
9 | QVQLVESGGGLVQAGGSLRLSCAASGSTFGYYGMGWYRQAPGKERELVAAISTGGRTNYADSVKGRFTISRDNAKNTVYLQMNSLKPEVTAVYYCAADFLCTAYRPSWYRFDYWGQGTQVTVSS | low polyreactivity
10 | QVQLVESGGGLVQAGGSLRLSCAASGSIFVNYAMGWYRQAPGKERELVAAISGRGGSTYYADSVKGRFTISRDNAKNTVYLQMNSLKPEDTAVFYCARYGYYGHDWGQGTQVTVSS | high polyreactivity
11 | QVQLVESGGGLVQAGGSLRLSCAASGIIFIGNAMGWYRQAPGKERELVAAISRRGGRTYYADSVKGRFTISRDNAKNTVYLQMNSLKPEDTAVYYCNAEITVNDDDYWGQGTQVTVSS | low polyreactivity
12 | QVQLVESGGGLVQAGGSLRLSCAASGRTIKKYAMGWDRQAPGQEREFVAAITGSGGSTYYADSVKGRFTISRDNAKNTVYLQMNSLKPEDTAVYYCAAYAYGVWHSQDGGNYWGKGTQVTVSS | low polyreactivity
13 | QVQLVESGGGLVQAGGSLRLSCAASGRIFTAYAMGWYRQAPGKERELVAAISSGDSTYYADSVKGRFTISRDNAKNTVSLQMNSLKPEDTAVYYCATGVYPDFEYDSWGQGTQVTVSS | low polyreactivity
14 | QVQLVESGGGLVQAGGSLRLSCAASGRTLYLYAMGWYRQAPGKERELVAAITYGGGSTYYADSVKGRFTISRDNAKNTVYLQMNSLKPEDTAVYYCNAPGDGYLYDHTYDYWGQGTQVTVSS | low polyreactivity
15 | QVQLVESGGGLVQAGGSLRLSCAASGFIFSSYAMAWYRQAPGKERDLVAAISKSGDRTSYADSVKGRFTISRDNAKNTVYLQMNSLKPEDTAVYYCAKDRLYRTKKYRDMYYWGQGTQVSVSS | high polyreactivity
16 | QVQLEESGGGLVQAGGSLRLSCAASGITFSRYAMGWYRQATGKERELVARISSSGGSTNYADSVKGRFTISRDNAKNTVYLQMNSLKPEDSAVYYCAVATRGKVARRVTFDYWGQGTQVTVSS | high polyreactivity
17 | QVQLVESGGGLVQAGGSLRLSCAASGRTFWSYAMGWYRQAPGKERELVAAINSGGSTYYADSVKGRFTISRDNAKNTVYLQMNSLKPEDTAVYYFAADTWYGFDWGQGTQVTVSS | high polyreactivity
18 | QVQLVDSCGGLVQAGGSLRLSCHASGLTFFANAMGWYRQEHGKERELVAAITRRGGSTYYADSVKGRFTNSRDNAKNTVYLQMNSLKPEDTAVYYCAAEPRSVPAQYRSGDYWGQGTQVTVSS | high polyreactivity
19 | QVQLVESGGGLVQAVGSLRLSCAASGLTFYIYVMGCYRQAPGKERELVAAISGSGGSTYYADSVKGRFTISRDNAKNTVYLHLNSLKLEDTALYYCNAEDWWRYLRGEDDYWGQGTQVTVSS | high polyreactivity
20 | QVQLVESGGGLVQAGGSLRLSCAASGGIFKRNTMGWYRQAPGKERELVAGISWTGGRTYYADSVKGRFTISRDNAKNTVYLHMNSLKPEDTAVYYCAAKPLQGVRRVEYWGQGTQVTVSS | high polyreactivity

Row | Sequence | polyreactivity (PSR sort gate)
21 | QVQLVESGGGLVQAGCSLRLICAASGIIFRRYAMGWYRQAPGKERELVAAISSSGGSTYYADSVKGRFTISRDNAKNTVYLQMNSLKPEDTAVYYCNAVTSVQARPRNYYYWGQGTQVTVSS | high polyreactivity
22 | QVQLVESGGGLVQAGGSLRLSCAASGFIFRNYAMGWSRQAPGKERELVAAITRSGTSTYYADSVKGRFTISRDNAKNTVYLQMNSLKPEDTAVYYCNAGWGLRLSWLGNYWGQGTQVTVSS | high polyreactivity
23 | QVQLVESGGGLVQAGGSLRLSCAASGSIFAKYAMGWYRQAPGKEREFVAAIRASGGRTYYADSVKGRFTISRDNAKNTVYLQMNSLKPEDTAVYYCAAHLYSSRSDYDGPRSRRNYWGQGTQVTVSS | high polyreactivity
24 | QVQLVESGGGLVQAGGSLRLSCAASGSTFQYNAKGWYRQAPGKERELVAAISSGGSTYYADSVKGRFTISRDNAKNTVYLQMNSLKPEDTAVYYCNALSRRQNWAGEVYYWGQGTQVTVSS | high polyreactivity
25 | QVQLVESGGGLVQAGGSLRLSCAASGFIFTWYAMGWYRQAPGKEREFVAGISRSGGRTYYADSLKGRFTISRDNAKNTVYLQMNSQKPEDTAVYDCNAVLVGYRPYREFDHWGQGTQVTVSS | high polyreactivity
26 | QVQLVESGGGLVQAGGSLRLSCAASGSIFWIYAMGWYRQAPGKERELVATITRRGGSTYYADSVKGRFTISRDNAKNTVYLQMNSLKPEDTAVYYCATEPGYTFLTSYKYDYWGQGTQVTVSS | low polyreactivity
27 | QVQLVESGGGLVQAGGSLRLSCAASGSTFVSYDMGWYRQAPGKERELVADISWSGVSTYADSVKGRFTISRDNAKNTVYLQMNSLKPEDTAVYYCATDDARRGYGYGYWGQGTQVTVSS | low polyreactivity
28 | QVQLVESGGGLVQAGGSLRLSCAASGNIFVFYVMGWYRQAPGKERELVASISSTGNTYYADSVKGRFTISRDNAKNTVYLQMNSLKPEDTAVYYCAADSHQNVSGWLRWPRMDYWGQGTQVTVSS | low polyreactivity
29 | QVQLVESGGGLVQAGGSLRLSCAASGIIFRLYAMGWYRQAPGTERELVAAISRRGDSTYYADSVKGRFTISRDNAKNTGYVQMNSLKPEDTAVYYCAAVYVPYYWLGRSRGLDYWGQGTQVSVSS | high polyreactivity
30 | QVQLVESGGGLVQAGGSLRLSCAASGRTFSRKAMRWYRQAPGKERELVASISRSGGSTYYADSVKGRFTISRDIAKNTVYLQMNSLKPEDTAVYYCAASYWHRRYDYWGQGTQVTVSS | high polyreactivity
31 | QVQLVESGGGLVQAGGSLRLSCAASGSTFGYNAMGWDRQAPGKERELVAAITGNDGTTYYADSVKGRFTISRDNAKNSVYLQMNSLKPEDSAVYYCAARPYLGYIGYEYWGQGTQVTVSS | low polyreactivity
32 | QVQLVESGGGLVQEGGSLRLSCAASGNIFRAYGMGWYRQAPGKERELVAAIDTTGGRTYYADSVKGRFTISRDNAKNTVYLQMNSLKPEDTAVYYCAVRAPAYPYYRGFDYWGQGTQVTVSS | low polyreactivity
33 | QVQLVESGGGLVQAGGRLRLSCAASGFIFIRNAMGWYRQAPGKERELVAAITRSGGRTYYADSVKGRFTISRDKAKNTVYLQMNSLKPEDTAVYYCAADADAAWGQGTQVTVSS | high polyreactivity
34 | QVQLVESGGGLVQAGGSLRLSCAASGSILSINGMGWYRQAPGKERELVATIDGSDGSTFYADSVKGRFTISRDNAKNTVYLQMNSLKPEDTAVYYCAAENFWQTKEYDYWGQGTQVTVSS | low polyreactivity
35 | QVHLVESGGGLVQAGGSLRLSCAASGRTFRRYAMGWYRQAPGKERELVAGISRSGVSTYYADSVKGRFTISRDNAKNTVYLQMNSLKPEDTAVYYCATRYVPTLRSSGDYCGQGTQVTVSS | high polyreactivity
36 | QVQLVESGGGLVQAGGSLRLSCAASGFIFYDYDMGCYRQAPGKERELVAAITYSGGSTYYADSVKGRFTISRDNAKNTVYLQMNSLKPEDTAVYYCAAVKSRYAEAVDYYYWGQGTQVTVSS | low polyreactivity
37 | QVQLLESGGGLVQAGGSLRLSCAASGYTFARYAMGWYRQAPGQERELVAAITSSGGSTYYADSVKGRFTISRDNAKNTVYLQMNSLKPEDTAVYYCNARGFQKSDPRGYLILNYWGQGTQVTVSS | high polyreactivity
38 | QVQLVESRGGLVQAGGSLRLSCAASGRTIYPYTMGCYRQAPGKERELVAAISSSGTRTYYADSVKGRFTISRDIAKNTVYLQMNSLKPEDTAVYDCATRRPGSFGYWGQGTQVTVSS | high polyreactivity
39 | QVQLVESGGGLFQAGGSLRLSCAASGLIIAYYAMRWYRQAPGKERELVAAISSVGSTYYADSVNGRFTISRDNAKNTVYLQMNSLKPEDTAVYYCAAAPRGGMYYWGQGTQVTVSS | high polyreactivity
40 | QVQLVDSGGGLVQAGGSLRLSCAASGRIFLYNGMGWYRQAPGKERELVAGIITGGNTNYADSVKGRFTISRDNAKNTVYLQMNSLKPEDTAVYYCAAEVIVYGWSPDYDYWGQGTQVTLSS | low polyreactivity

Source: the nanobody polyreactivity screen of Harvey et al. (2022)
